{
  "source": "the nanobody polyreactivity screen of Harvey et al. (2022)",
  "data": [
    {"assay": "yeast display, Sf9 membrane polyspecificity reagent, FACS + sequencing; frameworks hold sequencing errors", "procedure,_shortened": "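Galactose induction of a Saccharomyces cerevisiae BJ5465 synthetic nanobody display library ran 36–48 hours. The cells were then stained for 1 hour at 4 °C with 10% biotinylated, detergent-solubilized Sf9 membrane reagent, pulled down on streptavidin microbeads and FACS-sorted into low and high (top ~1%) gates on expression and reagent-binding fluorescence. Labels for polyreactivity follow the gate of origin.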", "values": [
      {"sequence": "QVQLVESGGGLVQAGGSLRLSCAASGSIFRAYAMGWYRQAPGKERELVAAITNGGGTTYYADSVKGRFTISRDNAKNTVYLQMNSLKPEDTAVYYCAADGAYSYASYDYWGQGTQVTVSS", "polyreactivity (PSR sort gate)": "low polyreactivity"},
      {"sequence": "QVQLVESGGGLVQAGGSLRLSCAASGSIFRAYAMGWYRQAPGKERELVADISRSGGSTYYADSVKGRFTISRDNAKNTVYLQLNSLKPEDTAVYYCAAVFYLYSNLYGEYDYWGQGTQVTVSS", "polyreactivity (PSR sort gate)": "low polyreactivity"},
      {"sequence": "QVQLVESGGGLVQAGGSLRLSCAASGSIFRAYAMGWYRQAPGKERELVADISRSGGSTYYADSVKGRFTISRDNAKNTVYLQMNSLKPEDTAVYYCAAVFYLYSNLYGEYDYWGQGTQVTVSS", "polyreactivity (PSR sort gate)": "low polyreactivity"},
      {"sequence": "QVQLVESGGGLVQAGGSLRLSCAASGSIFRDNTMGWYRQAPGKERELVAAISYSGGGTYYADSVKGRVTISRDNAKNTVYLQMNSLKPEDTAVYYCAKRTYPWYYREIPYGYWGQGTQVTVSS", "polyreactivity (PSR sort gate)": "high polyreactivity"},
      {"sequence": "QVQLVESGGGLVQAGGSLRLSCAASGSIFREYVMGWYRQAPGKEREFVAAISVSGGSTNYADSVKGRFTISRDNAKNTVYLQMNSLKPEDTAVYYCNADGVLTGYSRGGWYYWGQGTQVTVSS", "polyreactivity (PSR sort gate)": "low polyreactivity"},
      {"sequence": "QVQLVESGGGLVQAGGSLRLSCAASGSIFRFNPMGWYRQAPGKERELVAAISWSGGLTYYADSVKGRFTISRDNAKNTVSLQMNSLKPEDTAVYYCNAGRRYPLRYDYWGQGTQVTVSS", "polyreactivity (PSR sort gate)": "high polyreactivity"},
      {"sequence": "QVQLVESGGGLVQAGGSLRLSCAASGSIFRFNVMGWYRQAPGKERELVAAITRGDSTNYADSVKGRFTISRDNAKNTVYLQMNSLKPEDTAVYYCAAGYYYYLRDHDYWGQGTQVTVSS", "polyreactivity (PSR sort gate)": "low polyreactivity"},
      {"sequence": "QVQLVESGGGLVQAGGSLRLSCAASGSIFRFYAMGWYIQAPGKERELVAAIRFSGGNTYYADSVKGRFTISCDNAKNTVYLQMNSLKPEDTAVYYCAKYRRVKPKRYDYDYWGQGTQVTVSS", "polyreactivity (PSR sort gate)": "high polyreactivity"},
      {"sequence": "QVQLVESGGGLVQAGGSLRLSCAASGSIFRFYAMGWYRQAPGKERELVAAISSGGSTYYADSVKGRFTISRDNAKNTVYLQMKSLKPEDTAVYYCAHGFAQYGLDLDPGDYDYWGQGTQVTVSS", "polyreactivity (PSR sort gate)": "low polyreactivity"},
      {"sequence": "QVQLVESGGGLVQAGGSLRLSCAASGSIFRFYAMGWYRQAPGKERELVADISWRGGSTYYADSVKGRFTISRDNAKNTVYLQMNSLKPEDTAVSYCAAGYYRASTTVTHGGIEGDSWGQGTQVTVSS", "polyreactivity (PSR sort gate)": "high polyreactivity"},
      {"sequence": "QVQLVESGGGLVQAGGSLRLSCAASGSIFRFYAMGWYRQAPGQERELVAAITSGGSTNYADSVKGRFTISRDNAKNTVYLQMNSLKPEDTAVYYCAAVLVYFFIYDYWGQGTQVTVSS", "polyreactivity (PSR sort gate)": "low polyreactivity"},
      {"sequence": "QVQLVESGGGLVQAGGSLRLSCAASGSIFRGNALGWYRQAPGKERELVATITNGGSTNYADSVKGRFTISRDNAKNTVYLQMNSLKPEDTAVYSCNADHSYHIASTRHVDYWGQGNQVTVSS", "polyreactivity (PSR sort gate)": "low polyreactivity"},
      {"sequence": "QVQLVESGGGLVQAGGSLRLSCAASGSIFRGYALGWYRQAPGKERALVAAITKRGGNTYYADSVKGRFTISRDHAKNTVYLQMNSLKPEDTAVYYCAKAGWGKWVYAQMVYWGQGTQVTVSS", "polyreactivity (PSR sort gate)": "high polyreactivity"},
      {"sequence": "QVQLVESGGGLVQAGGSLRLSCAASGSIFRGYAMGWYRQAPGKERELVAAITSSGGSTNYADSVKGRFTISRDNAKNTVYLQMNSLKPEDTAVYYCAKAPGLWHLIQRMDYWGQVTQVTVSS", "polyreactivity (PSR sort gate)": "low polyreactivity"},
      {"sequence": "QVQLVESGGGLVQAGGSLRLSCAASGSIFRGYAMGWYRQAPGKERELVAVIRRTSGSTYYADSVKGRFTISRDNAKNTVYLQMNSLKPEDTAVYYCNTLRHSSYPSYGYWGQGTQVTVSS", "polyreactivity (PSR sort gate)": "high polyreactivity"},
      {"sequence": "QVQLVESGGGLVQAGGSLRLSCAASGSIFRGYAMGWYRQAPGKERELVAVITKSGGRTYYADSVKGRFTISRDNAKNTVYLQMNRLKPEDTAVYYCAKQPGSAYDYWGQGTQVTVSS", "polyreactivity (PSR sort gate)": "high polyreactivity"},
      {"sequence": "QVQLVESGGGLVQAGGSLRLSCAASGSIFRGYTMGWYRQAHGKERELVAAITSGDSTNYADSVKGRFTISRDNAKNTVYLQMKSLKPEDTAVYSCAAVTRFYTKYYWGQGTQVTVSS", "polyreactivity (PSR sort gate)": "high polyreactivity"},
      {"sequence": "QVQLVESGGGLVQAGGSLRLSCAASGSIFRGYTMGWYRQAPGKERELVAAITSGDSTNYADSVKGRFTISRDNAKNTVYLQMNSLKPEDTAVYYCAAGRLYLPYLVYRTYSFVGYYYWGQGTQVTVSS", "polyreactivity (PSR sort gate)": "high polyreactivity"},
      {"sequence": "QVQLVESGGGLVQAGGSLRLSCAASGSIFRGYTMGWYRQATGKERELVAAITSGDSTNYADSVKGRFTISRDNAKNTVYLQMNSLKPEDTAVYYCAAGRLYLPYLVYLTYSFVGYYYWGQGTQVTVSS", "polyreactivity (PSR sort gate)": "high polyreactivity"},
      {"sequence": "QVQLVESGGGLVQAGGSLRLSCAASGSIFRGYVRGWYRQAPGKERELVAAITWSTGSTYYADSVKGRFTISRDNAKNTVYLQMNSLKPEDTAVYYCAAVRRWAANRYQSGVTGNYWGQGTKVTVSS", "polyreactivity (PSR sort gate)": "high polyreactivity"},
      {"sequence": "QVQLVESGGGLVQAGGSLRLSCAASGSIFRHNAMGWYRQAPGKERELVAAISRRASSTYYADSVKGRFTISRDNAKNTVYVQMNSLKPEDTAVYYCAVVPSSTYHAYDYWGQGTQVTVSS", "polyreactivity (PSR sort gate)": "high polyreactivity"},
      {"sequence": "QVQLVESGGGLVQAGGSLRLSCAASGSIFRIKAMGWSRQAPGKERELVAAITGRVGSTYYADSVKGRFTISRDNAKNTVYLQMNSLKPEDTAVYYCAARAGSSRYTREYRYDYWGQGTQVTVSS", "polyreactivity (PSR sort gate)": "high polyreactivity"},
      {"sequence": "QVQLVESGGGLVQAGGSLRLSCAASGSIFRINAMGWYRPAPGKEREFVAAIRGSGGRTYYAESVKGRFTISRDNAKNTVYLQMNSLKPEDTAVYYCAADFSYRYFQRTSWPFDYWGQGTQVTVSS", "polyreactivity (PSR sort gate)": "high polyreactivity"},
      {"sequence": "QVQLVESGGGLVQAGGSLRLSCAASGSIFRINAMGWYRQAPGKERELVAAISWSGGSTYYADSVKGRFTISRDNAKNTVYVQMNSLKPEDTAVYYCAAVVSKSSFDYWGQGTQVTVSS", "polyreactivity (PSR sort gate)": "low polyreactivity"},
      {"sequence": "QVQLVESGGGLVQAGGSLRLSCAASGSIFRIYAMGGYRQAPGKERELVAAITGRGGSTYYADSVKGRFTISRDNAKNTVYLQRNSLKPEDTAVYYCAAEERYAYRYDYWGQATQVTVSS", "polyreactivity (PSR sort gate)": "high polyreactivity"},
      {"sequence": "QVQLVESGGGLVQAGGSLRLSCAASGSIFRIYAMGWYRQATGKETELVAAITWSGGSTYYADSVKGRFTISRDNAKNSVYLQMNSLKPEDTAVYYCAAVVIYWYQRVGYRSDYWGQGTQVTVSS", "polyreactivity (PSR sort gate)": "high polyreactivity"},
      {"sequence": "QVQLVESGGGLVQAGGSLRLSCAASGSIFRKNAMGRYRQAPGKERELVAAITGTGRTTYADSVKGRFTISRDNAKNTVYLQMNSLKPEDTAVYYCAADVNYYQHRLYYWGQGTQVTVSS", "polyreactivity (PSR sort gate)": "low polyreactivity"},
      {"sequence": "QVQLVESGGGLVQAGGSLRLSCAASGSIFRKNAMGWYRQAPGKERELVAAISSSGGRTYYADSVKGRFTISRDNAKNTVYLQMNSLKPEDTAVYYCNTGPGQSFRYNYWGQGTQVTVSS", "polyreactivity (PSR sort gate)": "high polyreactivity"},
      {"sequence": "QVQLVESGGGLVQAGGSLRLSCAASGSIFRLNAMGWYRQAPGKERELVAAISVSGTRTYYADSVKGRFTISRDNAKNIVYLQMNSLKPEDTAVYYCAARVYKGQGKGDYWGQGTQVTVSS", "polyreactivity (PSR sort gate)": "high polyreactivity"},
      {"sequence": "QVQLVESGGGLVQAGGSLRLSCAASGSIFRLNTKGGYRQAPGKERELVAAISNGGRTYYADSVTGRFTISRDNAKNTVYLQMNSLKPEDTAVYYCNVRYGRSKIYGYWGQGTQVTVSS", "polyreactivity (PSR sort gate)": "high polyreactivity"},
      {"sequence": "QVQLVESGGGLVQAGGSLRLSCAASGSIFRNNAMGWYRQAPGKERELVASITRRGGSTYYADSVKGRFTISRDNAKNTVYLQMNSLKPEDTAVYYCAATTQHRYKLNYWGQGTHVTVSS", "polyreactivity (PSR sort gate)": "high polyreactivity"},
      {"sequence": "QVQLVESGGGLVQAGGSLRLSCAASGSIFRNNAMGWYRQAPGKERELVAVINSRGGTTYYADSVKGRFTISRDNAMNPVYLQMNSLIPEDTAVYYCAARIRTSDRRYYWGQGTQVTVSS", "polyreactivity (PSR sort gate)": "high polyreactivity"},
      {"sequence": "QVQLVESGGGLVQAGGSLRLSCAASGSIFRNYAMGRSRQAPGKERELVAAITSGVRTNYADSVKGRFTISRDNAKNTVYLQMNSLKPEDTAVYYCNKGYNAVWRYRGDYWGQGTHVTVSS", "polyreactivity (PSR sort gate)": "high polyreactivity"},
      {"sequence": "QVQLVESGGGLVQAGGSLRLSCAASGSIFRNYAMGWSRQAPGKERELVAAINWNGGSTYYADSVKGRFTISRDNAKNTVYLQMNSLKPEDTAVYYCAARSSKFVTSNRYDYWGQGTQVTVSS", "polyreactivity (PSR sort gate)": "high polyreactivity"},
      {"sequence": "QVQLVESGGGLVQAGGSLRLSCAASGSIFRPNAMGWYRQAPGKERELVAAITFRGSRTYYADSVKGRFTISRDNAKNTVYLQMNSLKPEDTAVYYCNADYSSYWTSYDYWGQGTQVTVSS", "polyreactivity (PSR sort gate)": "high polyreactivity"},
      {"sequence": "QVQLVESGGGLVQAGGSLRLSCAASGSIFRPNAMGWYRQAPGKERELVAAITWSGDSTYYADSVKGRFTLSRDNAKNTVYRQMNSLKPVDTAVYYCATDPDYVLYRTAYYEFDYWGQGTHVTVSS", "polyreactivity (PSR sort gate)": "low polyreactivity"},
      {"sequence": "QVQLVESGGGLVQAGGSLRLSCAASGSIFRPNTMGWYRQAPGKERELVAAIRAGGRTYYADSVKGRFTISRDNAKNTVYLQMNSLKPEDTAVYYCNAVPASASTWRGQVGYDYWGQGTQVTVSS", "polyreactivity (PSR sort gate)": "high polyreactivity"},
      {"sequence": "QVQLVESGGGLVQAGGSLRLSCAASGSIFRPSAMGWYRQAPGKERELVAAIRWSTGNTYYADSVKGRFTISRDNAKNTVYLQMNSLKPEDTAVYYCAAAYWPVVWFYYWGQGTQVTVSS", "polyreactivity (PSR sort gate)": "low polyreactivity"},
      {"sequence": "QVQLVESGGGLVQAGGSLRLSCAASGSIFRPYAMGWYRQAPGKERELVAAITSGGRTNYADSVKGRFTISRDNAKNTVYLQMNSLKPEDTAVYYCAKTGSYAKIRPNNDYWGQGTQVTVSS", "polyreactivity (PSR sort gate)": "low polyreactivity"},
      {"sequence": "QVQLVESGGGLVQAGGSLRLSCAASGSIFRPYTMGWYRQAPGKEREFVAAITWSDGSTYYADSVKGRFTISRDNAKNTVYLQINSLKPLDTAVYDCAADLHDGYYYSFWYGYDYWGQGTQVTVSS", "polyreactivity (PSR sort gate)": "low polyreactivity"},
      {"sequence": "QVQLVESGGGLVQAGGSLRLSCAASGSIFRQYAMGWYRQAPGKERELVAAITYSGGNTYYADSVKGRFTISRDNAKNTVYLQMNSLKPEDTAVYYCAADYGSRSWEYNYWGQGTQVTVSS", "polyreactivity (PSR sort gate)": "low polyreactivity"},
      {"sequence": "QVQLVESGGGLVQAGGSLRLSCAASGSIFRQYAMGWYRQAPGKERELVATISRSGGSTYYADSVKGRFTISRDNAKNTVYLQMNSLKPEDTAVYYCAASRYNKSYREWWVGSWGQGTQVTVSS", "polyreactivity (PSR sort gate)": "high polyreactivity"},
      {"sequence": "QVQLVESGGGLVQAGGSLRLSCAASGSIFRRNAMGWYRQAPAKERDLVAAISVRGGSTYYAYSVKGRFTISRDLAKNTVYLQMISLKPEDTAVYYCAADEFDDYDWYRGYDSTYDYWGQGTQVTVST", "polyreactivity (PSR sort gate)": "low polyreactivity"}
    ]}
  ]
}
